assay: soluble on expression in E. coli; label from the status in PepcDB or PDB records

Soluble on expression in E. coli, not soluble:
MGSDKIHHHHHHMLTRTHEAIPEIMYRIGDLADETGLPCYIVGGYVRDLIMQRPCTDIDIMVIGEPVPFAHALAEKLGGRNFVLFERFRTAQLELDDPKAGTFKLEIVGARKESYNPESRKPITSIGTLEDDLSRRDFTINALALRLNRKERGEVVDLFDGQRHIREKLLKTPLDPEQTFSDDPLRMMRAARFACQLDFQLDEATLTAMSTMSSRIQIVSRERVSHEFFKIMEARKPSIGLKILYSTGLLKEIIPELTVMAGIEQVDGLGHKDTLFHTFQVVDNLAEHSDKLWLRVSALFHDIAKPVTKRFHPGSGWTFHGHEAVGVKIVARIFRAMKWPLEPMEYVQKMVRLHHRPIPLSKEEITDSAVRRLMFDAGPDLDDLMTLCRADVTSKNPRKVQRIMKNFSNVEAKIAEVGEKDLLAKWRPPVSGTDIMELLNLPQGRTVGIIKSRMENAIIDGDIPYDRQAALDYIQQVYREMQEKGEA, MGSDKIHHHHHHMLTSGLYQSKNQCCGCELCSCVCPKNLIRMQPDDEGFLYPYIETDEGCVHCNKCIKICPMKSSNRNDIVLKASFGGQTRDIDGTRYSSSGGYATAISKQFILEKGVVVGVRYSSDFSKSEYAIAETIEELEQFRTSKYIQAEKGGIYQTIRNIKRKKILFIGLPCEVSALYNYWGRNTDNLYSISLVCHGPTTPKVQNLFASKLKENNNSQIKYFSVRYKESGWKPYYIYADFENGKHHQELFKGSSYEIAFQYLKRPSCSSCRYKLGDQEFGLVSDLTLGDFHAVEKNMLQYSPWGGVSQASVQSEKGEYLIDLARRQCNVEFIPEKYITKYNYAFHHPVAQKTGRESFKRILLREGLDCAAKSLLVQIPTCYINAKRRIISFLYNVKSYLISK, MGSDKIHHHHHHMLVQGFEEDLAFLGWIALTLGSNPLVPYVPTRPELIPKILELLDLKEDDVFYDLGCGDGRVVIEAVKKTRVKKAVCVETRDDLVKEARKKAEEEGVSDRIEFINNDFFKTPLKDATAVYMYLLTSVNESLKPKLARELRDGTRIVTLDFPIPGWKPVKVETATTGWQRSLYLYVKGVSDRA, MGSDKIHHHHHHMLVVIPQVLNAEQVGAVRERLEHAGEAWVDGRVTAGYSGAPVKFNQQIDERSDVALECQRLILGMLERNPRFISAALPNIVYPPMFNRYSEGMTFGAHVDGSVRIHPHDGRKLRTDISATLFLSPHDSYDGGELQVQDTYGMHSVKLDAGDMVVYPATSLHQVTPITRGTRVASFFWIQSLIRDDTQRSLLFDMDNAIQRLNQTGADEEARRTLVGCYHNLLRQWSET, MGSDKIHHHHHHMLYVTGITGHSGQWFVKRLISEGYKGRIRCIVLPESDTDFLNKSGLDIDIVSGNLNDQEFLTSTMVGCSTVLHIASIDFSRNVVKAALDNNLDWAILVHTTGRYSKYKSASAEYIEIEEYVLKFRNRMGITVLRPTMIYGSSRDRNMYKLITFLHKIKFFPMFGEGENLMQPVHARDLGNAYYDVIVNRSTTFNKGYNLPGKRPLTYMELVRTVSDTLGRKNVIIKIPLWFSILAARVYNALDKNAIISVEQVLRMQEDKAFDYEDAVRDFSYSPVSFEDGIVEEVNEYLARYNSSRTKQR, MGSDKIHHHHHHMMAMITDPDDFFTKGCGRCARFDTPDCSTRPWIDGLNALRRICFSMGLEETAKWAHPCYMHAGRNIALLGAFRSDFLISFLNAGLLVDKAGVLKTPGPNSQTPSVIRFTTVAEVEALEPTIRAYLRQLMDHAVAGTQPPKMAREIDLPDELVDALDADPVLAEAYHALTPGRQRSYLFALSQAKQSATRVARIEKFRDKIIAGKGALER, MGSDKIHHHHHHMMCFSCRVTSDAKVVFLDVIPTPQDIISDFSYICLLLTIKFEYMENISRRTAIKTFLAGGVALATTGIEAAAAAKKKTDVKEPLKGNVRHSVSKWCFGDYKLDEFCEICKHIGIESVELLDPVDWPIVQKHGLTVAMAQGAGLGIDRGFNDPALHDELVASYEKVIPMVADAGLTNLICFSGRRNGVTDLQGWENCEKGLKRLIPLAEKHKVVLTMELLNSVGHKDYLCDHTVWGAELCRRIGSPNFKLLYDIYHMQIMEGNIIENIRKYHPYFSHVHTGGSPGRAEIDETQELYYPAIIKALMETGYKGFVGQEFVPAQEDKIASLEKCIRICDV, MGSDKIHHHHHHMMDKEIENGSVNVDLLELEKFNQLAHRWWDPNSEFKPLHEINPLRLGYIDRHARLAGKDVLDVGCGGGILSESMAESGAQVTGIDLGDKALKVAKLHLLESGNKVNYRKSSVEALAAEQPHHYDVVTCMEMLEHVPDPVSTVRACAELAKPGGWVFFSTINRNPKSYLFAVIGAEYVLNLLPRGTHDYAKFIKPSELGRMAREAGLDVQEVIGMSYNPITKVYSLGQDTDVNYIMAFRA, MGSDKIHHHHHHMMDMLIAHISDTHITNEVAFKSYAYDLIVNEINTKPFDLVVHTGDVTNNGLREEYEHASYLIKKIEKPLVVVPGNHDARNVGYELFEKYIGPLYGVYEFDNGVIIWLDSTIPDLSDGRVGGYKFKWLKEKLEAYSHKKIKIVAAHHHLVPLPDTGRERNVLFNAGDVLDLLLTHEVTLYMCGHKHVPNVYRVEDLVVDNAGCASCRKTRKGDVNSYNIVKITDKGVKVVIRRLTGDEESKEHNPIRPKIFIPRGRRLLRIVQISESNVSDRVYFRKRTLENAIKAINEKYKPDIVIHCGDVVEKGIERYYEKAMEYYEKVKGEKIIVPGHNDISYLGYELFREYFGEPEVLELGDFVFIPILSAQYETQIGVVGRTGQKMLSRMLEEFREKFRIVIMHHNLVPVPGVKEIGYLEDAGNVLKIITENETELTLTGHGGNTSAVKVEKSPIINAGSISWELHRNPFGNSFNIIDIYEDMVVAFEIQATWGSRKVLGMWKIKSEIPWL, MGSDKIHHHHHHMMFQEQIDLLQQKGLYRSLKSVGYIDRQYIEVENKRCTNYTSNDYLGLGQIAFDKDDFERFMRKYSYHLSSSRLISGSSTAYEEIETMLAGWLGYSACTILNSGYDANLALFNIFKNTNCVVFSDQENHASIIDGIKLSGLEKVIYKHLDIADLEKRLEKYPNQNIPKIIISDSVFSTNGDVVDIGQLVSLKHKYNATLILDVSHSFGIENYSNYQGVDILTSSLSKACGAYGGVILSSNDVKDMLINHGRPLIYSSSLPIYNLYFIKRNIEKLINADDRRTKLNSLSKYFNQKLKALNVNYNSSNSPIKFIEFDDIEAAENIHQTLLKHHVFTSYLRYPTVTKPMLRISLSYFHTEQDIDRLFEILHQED, MGSDKIHHHHHHMMIKVFPKLRKQIWGSYRLGEMFGSNEKIGEVWLLSGHPLFITEAEGGLDLNEDMEKLIGKKLPRFPLLVKLISAEDWLSVQVHPNDDEAQELENEPWGKTEAWYFVEKGQIAIGEDPEKVKRALEDNSWDEALKKVEIEPGTFVFLPAGTVHALGPGGLLVEVQQASDLTYRVYDWGRGRELHIEKAFKVMKERKVEDLIVENFENFECEYFRIEKLERGKLEGFCAIVILENGVLDNRQVSPFETFIVPKGEKAELRATALVMRIGKFFEQWGDKK, MGSDKIHHHHHHMMNATPWLTVSRGTAPLLVSIPHTGIDLAGLEPRLVSPWLGRRDCDWWIDKLYDFANDLGATVVHTAISRTVIDVNRDPTGVSLYPGQTTTTLCPTDTFDGDPLYRMGEEPTPSEIDQRRETYFKPYHAALQAEIDRLRGMHEKIVLYDCHSIRSVLPRLFEGTLPVFNLGTNDGKSTDPVLQDKVAAILAATGETWVVNGRFKGGSITRGFGQPQNGVHALQMELSNRGYMREPSEKGSPENWPVPYDPTYAAPIRATLKTILETAIDWARR, MGSDKIHHHHHHMMPELKSALYAGKVMHQRLKPRRHRLSYRIFFLLLDLDEIDAMSKRLRLLSHNRFNLFGFADADHGDGSGGSLKAYVEDMLKTAGIETDAGPIRLLSMPRMLGYAFNPISIYFCHSRQGDLVAILYEVNNTFGQRHSYLIPVGERHDETVRQHCDKRFYVSPFMAMGLNYRFRIGLPGENVAIHITASDDQGPLMVASFAGKRRALSDASLLRAFISYPLLTLKVTAGIHWEALRLWAKGIRLQERPAPPHNSITHVAMHGRLRRKAEPDVI, MGSDKIHHHHHHMMQALKIDEEIWQMFPEARFEVLVVKGINNQSKADEYYQELLDRAIEKSQKYIANDVFRDNPVVSEWRTAFTKFKKKKGARASIEALLKRVSQGKSLSPINPLVDIYNSISLEYGVPCGGEDLQKMDGTMHLGVAKGGESFRPLGSDEDEPALPGEVIYYDATGAICRCFNWREAQRTMLTEDTTDAVMVIEAINADQAQRAKSAIEKLKELVESKLNATGEHFTLQAQ

From the DeepSol protein solubility set
